Measured values from patent US20220204580A1 (AstraZeneca / MedImmune, published 2022).
Numbered stars: 1 amine (or outer) side, 2 acyl side, 3 side chain; on linkers, the order of the positions; unused ones are H or OH. Bridge positions count the residues as written; N and C are the ends. Square brackets hold non-standard residues; d marks the D form. Side chains are listed from the residue outwards. Ends that are not written are not given here. * marks the point of attachment. C18 diacid = O=C(O)CCCCCCCCCCCCCCCCC(=O)*; γGlu = O=C(O)[C@H](CCC(=O)[*:2])N[*:1]; Aib = CC(C)(N)C(=O)O

T1: human amylin receptor (calcitonin receptor co-expressed with receptor activity modifying protein, RAMP3) (human, UniProt P30988 25-474; O60896 24-148)
T1 sequence (looked up) 1: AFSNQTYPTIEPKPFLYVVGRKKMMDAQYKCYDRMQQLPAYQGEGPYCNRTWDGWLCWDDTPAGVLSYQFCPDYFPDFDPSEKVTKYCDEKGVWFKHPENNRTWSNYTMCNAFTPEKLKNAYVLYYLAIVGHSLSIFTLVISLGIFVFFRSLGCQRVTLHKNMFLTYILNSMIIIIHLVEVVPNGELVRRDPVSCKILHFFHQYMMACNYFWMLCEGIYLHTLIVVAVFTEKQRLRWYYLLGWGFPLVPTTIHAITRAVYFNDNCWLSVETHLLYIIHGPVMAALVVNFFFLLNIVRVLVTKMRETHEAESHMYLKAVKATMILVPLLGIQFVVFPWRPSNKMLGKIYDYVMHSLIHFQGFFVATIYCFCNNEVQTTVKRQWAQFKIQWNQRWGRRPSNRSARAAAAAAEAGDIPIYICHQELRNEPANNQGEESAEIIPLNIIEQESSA
T1 sequence (looked up) 2: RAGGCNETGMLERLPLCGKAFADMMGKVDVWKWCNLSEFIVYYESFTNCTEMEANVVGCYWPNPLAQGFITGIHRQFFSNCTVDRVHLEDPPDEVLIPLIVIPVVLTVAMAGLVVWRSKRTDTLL

T2: human calcitonin receptor (human, UniProt P30988 25-474)
T2 sequence (looked up): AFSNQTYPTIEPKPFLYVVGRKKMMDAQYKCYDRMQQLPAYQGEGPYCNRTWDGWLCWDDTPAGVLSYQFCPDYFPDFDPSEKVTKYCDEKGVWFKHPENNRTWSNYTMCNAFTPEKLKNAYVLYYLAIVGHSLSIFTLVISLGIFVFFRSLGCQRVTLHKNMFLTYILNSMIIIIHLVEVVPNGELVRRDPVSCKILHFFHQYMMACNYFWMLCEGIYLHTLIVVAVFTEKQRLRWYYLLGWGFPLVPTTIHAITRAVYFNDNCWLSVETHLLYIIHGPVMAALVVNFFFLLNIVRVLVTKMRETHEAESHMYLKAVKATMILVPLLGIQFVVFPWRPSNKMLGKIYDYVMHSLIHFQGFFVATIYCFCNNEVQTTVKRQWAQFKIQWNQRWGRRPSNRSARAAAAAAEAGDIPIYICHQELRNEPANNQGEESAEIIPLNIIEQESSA


Tests used:
[1] = biological target: T1, human amylin receptor (calcitonin …); assay: cell-based or functional assay
[2] = biological target: T2, human calcitonin receptor; assay: cell-based or functional assay

Row | EC50 (cAMP production) [1] | Ratio (EC50 hCTR / EC50 hAMYR3) [1] | EC50 (cAMP production) [2] | Binder
1 | 479 pM | 3 | 1630 pM | K([γGlu-C18 diacid])KCNTATCATQRLANFL[Aib]HSSNNFGPILPPTNVGS[Aib]TY-NH2 (disulfide 3-8; N-terminus assumed; SMILES CC[C@H](C)[C@H](NC(=O)[C@@H]1CCCN1C(=O)CNC(=O)[C@H](Cc1ccccc1)NC(=O)[C@H](CC(N)=O)NC(=O)[C@H](CC(N)=O)NC(=O)[C@H](CO)NC(=O)[C@H](CO)NC(=O)[C@H](Cc1c[nH]cn1)NC(=O)C(C)(C)NC(=O)[C@H](CC(C)C)NC(=O)[C@H](Cc1ccccc1)NC(=O)[C@H](CC(N)=O)NC(=O)[C@H](C)NC(=O)[C@H](CC(C)C)NC(=O)[C@H](CCCNC(=N)N)NC(=O)[C@H](CCC(N)=O)NC(=O)[C@@H](NC(=O)[C@H](C)NC(=O)[C@@H]1CSSC[C@H](NC(=O)[C@H](CCCCN)NC(=O)[C@@H](N)CCCCNC(=O)CC[C@H](NC(=O)CCCCCCCCCCCCCCCCC(=O)O)C(=O)O)C(=O)N[C@@H](CC(N)=O)C(=O)N[C@@H]([C@@H](C)O)C(=O)N[C@@H](C)C(=O)N[C@@H]([C@@H](C)O)C(=O)N1)[C@@H](C)O)C(=O)N[C@@H](CC(C)C)C(=O)N1CCC[C@H]1C(=O)N1CCC[C@H]1C(=O)N[C@H](C(=O)N[C@@H](CC(N)=O)C(=O)N[C@H](C(=O)NCC(=O)N[C@@H](CO)C(=O)NC(C)(C)C(=O)N[C@H](C(=O)N[C@@H](Cc1ccc(O)cc1)C(N)=O)[C@@H](C)O)C(C)C)[C@@H](C)O) [Peptide 102 (SEQ ID NO: 102)]
2 | 473 pM | 7 | 3420 pM | K([γGlu-C18 diacid])KCNTATCATQRLANFLVHSSNNFGP[Aib]LPPTNVGSNTY-NH2 (disulfide 3-8; N-terminus assumed; SMILES CC(C)C[C@H](NC(=O)[C@H](CCCNC(=N)N)NC(=O)[C@H](CCC(N)=O)NC(=O)[C@@H](NC(=O)[C@H](C)NC(=O)[C@@H]1CSSC[C@H](NC(=O)[C@H](CCCCN)NC(=O)[C@@H](N)CCCCNC(=O)CC[C@H](NC(=O)CCCCCCCCCCCCCCCCC(=O)O)C(=O)O)C(=O)N[C@@H](CC(N)=O)C(=O)N[C@@H]([C@@H](C)O)C(=O)N[C@@H](C)C(=O)N[C@@H]([C@@H](C)O)C(=O)N1)[C@@H](C)O)C(=O)N[C@@H](C)C(=O)N[C@@H](CC(N)=O)C(=O)N[C@@H](Cc1ccccc1)C(=O)N[C@@H](CC(C)C)C(=O)N[C@H](C(=O)N[C@@H](Cc1c[nH]cn1)C(=O)N[C@@H](CO)C(=O)N[C@@H](CO)C(=O)N[C@@H](CC(N)=O)C(=O)N[C@@H](CC(N)=O)C(=O)N[C@@H](Cc1ccccc1)C(=O)NCC(=O)N1CCC[C@H]1C(=O)NC(C)(C)C(=O)N[C@@H](CC(C)C)C(=O)N1CCC[C@H]1C(=O)N1CCC[C@H]1C(=O)N[C@H](C(=O)N[C@@H](CC(N)=O)C(=O)N[C@H](C(=O)NCC(=O)N[C@@H](CO)C(=O)N[C@@H](CC(N)=O)C(=O)N[C@H](C(=O)N[C@@H](Cc1ccc(O)cc1)C(N)=O)[C@@H](C)O)C(C)C)[C@@H](C)O)C(C)C) [Peptide 106 (SEQ ID NO: 106)]
3 | 79 pM | 23 | 1820 pM | K([γGlu-C18 diacid])CNTATCATQRLANFLVHSSNNFGPIL[dP]PTNVGSNTY-NH2 (disulfide 2-7) [Peptide 104 (SEQ ID NO: 104)]
4 | 82 pM | 2 | 176 pM | K([γGlu-C18 diacid])KCNTATCATQRLANFLVHSSN[Aib]FGPILPPTNVGSNTY-NH2 (disulfide 3-8; N-terminus assumed; SMILES CC[C@H](C)[C@H](NC(=O)[C@@H]1CCCN1C(=O)CNC(=O)[C@H](Cc1ccccc1)NC(=O)C(C)(C)NC(=O)[C@H](CC(N)=O)NC(=O)[C@H](CO)NC(=O)[C@H](CO)NC(=O)[C@H](Cc1c[nH]cn1)NC(=O)[C@@H](NC(=O)[C@H](CC(C)C)NC(=O)[C@H](Cc1ccccc1)NC(=O)[C@H](CC(N)=O)NC(=O)[C@H](C)NC(=O)[C@H](CC(C)C)NC(=O)[C@H](CCCNC(=N)N)NC(=O)[C@H](CCC(N)=O)NC(=O)[C@@H](NC(=O)[C@H](C)NC(=O)[C@@H]1CSSC[C@H](NC(=O)[C@H](CCCCN)NC(=O)[C@@H](N)CCCCNC(=O)CC[C@H](NC(=O)CCCCCCCCCCCCCCCCC(=O)O)C(=O)O)C(=O)N[C@@H](CC(N)=O)C(=O)N[C@@H]([C@@H](C)O)C(=O)N[C@@H](C)C(=O)N[C@@H]([C@@H](C)O)C(=O)N1)[C@@H](C)O)C(C)C)C(=O)N[C@@H](CC(C)C)C(=O)N1CCC[C@H]1C(=O)N1CCC[C@H]1C(=O)N[C@H](C(=O)N[C@@H](CC(N)=O)C(=O)N[C@H](C(=O)NCC(=O)N[C@@H](CO)C(=O)N[C@@H](CC(N)=O)C(=O)N[C@H](C(=O)N[C@@H](Cc1ccc(O)cc1)C(N)=O)[C@@H](C)O)C(C)C)[C@@H](C)O) [Peptide 109 (SEQ ID NO: 109)]
5 | 161 pM | 12 | 1880 pM | K([γGlu-C18 diacid])CNTATCATQRLANFLVHSSNNFGPI[dL]PPTNVGSNTY-NH2 (disulfide 2-7) [Peptide 103 (SEQ ID NO: 103)]
6 | 1070 pM | 25 | 26300 pM | K([γGlu-C18 diacid])KCNTATCATQRLANFLRHSSNNFGP[Aib]LPPTNVGSNTY-NH2 (disulfide 3-8; N-terminus assumed; SMILES CC(C)C[C@H](NC(=O)[C@H](CCCNC(=N)N)NC(=O)[C@H](CCC(N)=O)NC(=O)[C@@H](NC(=O)[C@H](C)NC(=O)[C@@H]1CSSC[C@H](NC(=O)[C@H](CCCCN)NC(=O)[C@@H](N)CCCCNC(=O)CC[C@H](NC(=O)CCCCCCCCCCCCCCCCC(=O)O)C(=O)O)C(=O)N[C@@H](CC(N)=O)C(=O)N[C@@H]([C@@H](C)O)C(=O)N[C@@H](C)C(=O)N[C@@H]([C@@H](C)O)C(=O)N1)[C@@H](C)O)C(=O)N[C@@H](C)C(=O)N[C@@H](CC(N)=O)C(=O)N[C@@H](Cc1ccccc1)C(=O)N[C@@H](CC(C)C)C(=O)N[C@@H](CCCNC(=N)N)C(=O)N[C@@H](Cc1c[nH]cn1)C(=O)N[C@@H](CO)C(=O)N[C@@H](CO)C(=O)N[C@@H](CC(N)=O)C(=O)N[C@@H](CC(N)=O)C(=O)N[C@@H](Cc1ccccc1)C(=O)NCC(=O)N1CCC[C@H]1C(=O)NC(C)(C)C(=O)N[C@@H](CC(C)C)C(=O)N1CCC[C@H]1C(=O)N1CCC[C@H]1C(=O)N[C@H](C(=O)N[C@@H](CC(N)=O)C(=O)N[C@H](C(=O)NCC(=O)N[C@@H](CO)C(=O)N[C@@H](CC(N)=O)C(=O)N[C@H](C(=O)N[C@@H](Cc1ccc(O)cc1)C(N)=O)[C@@H](C)O)C(C)C)[C@@H](C)O) [Peptide 107 (SEQ ID NO: 107)]
7 | 801 pM | 8 | 6810 pM | K([γGlu-C18 diacid])KCNTATCATQRLANFLVHSSNNFGPI[Aib]PPTNVGSNTY-NH2 (disulfide 3-8; N-terminus assumed; SMILES CC[C@H](C)[C@H](NC(=O)[C@@H]1CCCN1C(=O)CNC(=O)[C@H](Cc1ccccc1)NC(=O)[C@H](CC(N)=O)NC(=O)[C@H](CC(N)=O)NC(=O)[C@H](CO)NC(=O)[C@H](CO)NC(=O)[C@H](Cc1c[nH]cn1)NC(=O)[C@@H](NC(=O)[C@H](CC(C)C)NC(=O)[C@H](Cc1ccccc1)NC(=O)[C@H](CC(N)=O)NC(=O)[C@H](C)NC(=O)[C@H](CC(C)C)NC(=O)[C@H](CCCNC(=N)N)NC(=O)[C@H](CCC(N)=O)NC(=O)[C@@H](NC(=O)[C@H](C)NC(=O)[C@@H]1CSSC[C@H](NC(=O)[C@H](CCCCN)NC(=O)[C@@H](N)CCCCNC(=O)CC[C@H](NC(=O)CCCCCCCCCCCCCCCCC(=O)O)C(=O)O)C(=O)N[C@@H](CC(N)=O)C(=O)N[C@@H]([C@@H](C)O)C(=O)N[C@@H](C)C(=O)N[C@@H]([C@@H](C)O)C(=O)N1)[C@@H](C)O)C(C)C)C(=O)NC(C)(C)C(=O)N1CCC[C@H]1C(=O)N1CCC[C@H]1C(=O)N[C@H](C(=O)N[C@@H](CC(N)=O)C(=O)N[C@H](C(=O)NCC(=O)N[C@@H](CO)C(=O)N[C@@H](CC(N)=O)C(=O)N[C@H](C(=O)N[C@@H](Cc1ccc(O)cc1)C(N)=O)[C@@H](C)O)C(C)C)[C@@H](C)O) [Peptide 108 (SEQ ID NO: 108)]
